According to the RNAGym collection of RNA variant scans (doi:10.1073/pnas.2313332121):
Fewer inactive variants are shown than the library holds.

B1: TPR 5TU (parent)
chain: GGAUCUUCUCGAUCUAACAAAAAAGACAAAUCUGCCACAAAGCUUGAGAGCAUCUUCGGAUGCAGAGGCGGCAGCCUUCGGUGGCGCGAUAGCGCCAACGUUCUCAACUAUGACACGCAAAACGCGUGCUCCGUUGAAUGGAGUUUAUCAUG

Variants of: B1
Test: polymerase ribozyme fitness, log enrichment relative to wild type (log ratio); higher = more active; in vitro selection for triplet polymerase activity
Procedure, shortened: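 Genotype fitness is the logarithm of its enrichment divided by wild-type enrichment, using inverse-variance-weighted averages of replicates. That logarithm is base 2. Enrichment was measured by Illumina sequencing of input and output libraries from one triplicate in vitro selection round, with frozen incubation at −7 °C, on PCR-built, transcribed mutant libraries of each subunit of a heterodimeric triplet polymerase ribozyme, retaining genotypes with ≥10 input reads and ≥1 read per output.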

Variant | polymerase ribozyme fitness (log ratio)
GGAUCUUCUCGAUCUAACAGAAAAGACAAAUCUGCCACAAAGCUUGAGAGCAUCUUCGGAUGCAGAGGCGGCAGCCUUCGGUGGCGCGAUAGCGCCAACGUUCUCAACUAUGACACGCAAAACGCGUGCUCCGUUGAAUGGCGUUUAUCAUG | -1.06
GGAUCUUCUCGAUCUAACAGAAAAGACUAAUCUGCCACAAACCUUGAGCGCAUCUUCGGAUGCAGAGGCGGCAGCCUUCGGUGGCGCGAUAGGGCCAACGUUAUCAACUAUGACACGCAAAACGCGUGCUCCGUUGAAUGGAGUUUAUCAUG | ≤ -4.2
GGAUCUUCUCGAUCUAACAGAAAUGACAAAUCUGCCACAAAGCUUGAGAGCAUCUUCGGAUGCAGAGGCGGCAGCCUUCGGUGGAGCGAUAGCGCCAACGUUCUCAACUAUGACAAGCAAAACGCGUGCUCCGUUGAAUGGAGUUUAUCAUG | -0.238
GGAUCUUCUCGAUCUAACAGAAAAGAAAAAUCUGCCACAAAGCUUGGGAGCAUCUUCGGAUGCAGAGGCGGCAGCCUUCGGUGGCGCGAUAACGCCAACGUUCUCAACUAUGACACGCAAAACGCGUGCUCCGUUGAAUGGAGUUUAUCAUG | ≤ -4.2
GGAUCUUCUCGAUCUAACAGAAAAGAGAAAUCUGCCACAAAGCUUGAGAGCAUCUUCGGAUGCAGACGCGGCAGCCUGCGGUGGCGCGUUAGGGCCAACGUUCUCAACUAUGACACGCAAAACACGUGCUCCGUUGAAUGGAGUUUAUCAGG | ≤ -4.2
GGAUCUUCUCGAUCUAACAGAAAAGACAAAUCUGCCACAAAGCUUGAGAGCAUCUUCGGAUGCAGAGGCGGCAGCCUUCGGUGGCGCGAUAGCGCCAACGUUCUCAGCUAUGACAGGCAAAGCACGUCCUCCGUUGAAUGGAGUUUAUCAUG | ≤ -4.2
GGAUCUUCUCGAUCUAACAGAAAAGACAAAUCUGCCACAAAGCUUGAGAGCUUCUUAGGAUUCAGAGGCGGCAGCCUUCGGUGGCGCGAUAGCGACAACGUUCUCAACUAUGACACGCAAAACGCGUGCUCCCUUGAAUGGAGUUUAUCUUG | -1.8
GGAUCUUCUCGAUCUAACAGAAAAGACAAAUCUGCCACAAAGCUUGAGAGCGUCUUCUGAUGCAGAGGCGGCAGCCUUCGGUGGCGUGAUAGCGCCAACGUUCUCAACUAUGACACGCAAAACGCGUGCUCCGUUGAAUGGAGUUUAUCAUG | -0.805
GGAUCUUCUCGAUCUAACAGAAAAGACAAAUCUGCCACAAAGCUUGAGAGCAUCUUCGGAUGCAGAGGCGGCUGCCUUCGGUAGCGCGAUAGCGCCAACGUUCUCAACUAUGACACGCAAAACGCGUGCUCCGUUGAAUGGAGUUUAUCAUG | -2.36
GGAUCUUCUCGAUCUAACAGAAAAGACAUAUCUGCCACAAAGCUUGAGAGAAUCUUCGGAUGCAGAGGCGGCAGCCUUCGGUGGCGCGAUAGCGCCAACGUUCUCCACUAUGUCACGCAAAACGCGUGCUCCGUUGAAUGGAGUUUAUCAUG | -4.2
GGAUCUUCUCGAUCUAACAGAAAAGACAAAUCUGGCACAAAGCUUGAGCGCAUCUUCGGAUGCAGAGGCGGCGGCCUUCGGUGGCGGGAUAGCGCCAACGUUCUCAACUAUGACACGCAAAACGCGUGCUCCGUUGAAUGGAGUUUAUCAUG | ≤ -4.2
GGAUCUUCUCGAUCUAACAGAAAAGAUAAAUCUGUCACAAAGCUUGAGUGCAUCUUCGGAUGCAGAGGCGGCAGCUUUCGGUGGCGCGAUAGCGCCAACGUUCUCAACUAUGACACGCAAAACGUGUGCUCCGUUGAAUGGAGUUUAUCAUG | ≤ -4.2
GGAUCUUCUCGAUCUAACAGAAAAGACAAAUCUGCCACAAAGCUUGAGAGCAUCUUCGGAUGCAGAGGCGGCGGCCUUCGGUGGAGCGAUAGCGCCAACGUUCUCAACUAUGACACGCAAAACGCGUGCUCCGUUGAAUGGAGUUUAUCAUG | -2.05
GGAUCUUCUCGAUCUAACAGAAAAGACAAAUCUGCCGCAAAGCUUGAGAGCAUCUUCGGAUGCAGAGGCGGCAGCCUUCGGUGGCGCGAUAGCGCCAACGUUCUCGACUAUGACACGCAAAACGCGUGCUCCGUUGACUGGAGUUUAUCAUG | -3.84
GGAUCUUCUCGAUCUAACAGAAAAGACAAAUCUGCCACGAAGCUUGAGACCAUCUUCGGAUGCAGAGGCGGCAGCCUUCGGUGGAGCGAUAGAGCCAACGUUCUCAACUAUGAGACGCAAAACGGGUGCUCCGUUGAAUGGAGUUUAUCAUG | ≤ -4.2
GGAUCUUCUCGAUCUAACAGAAAAGACACAUCUGCCACAAAGCUUUAGAGCAUUUUCGGAUGCAGAGGCGGCAGCCUUCGGUGGCGCGAUAGCGCUAACGUUCUCAACUAUGACAAGCAAAACGCGUGCUCCGUUGAAUGGAGUUUAACAUG | ≤ -4.2
GGAUCUUCUCGAUCUAACAGAAAAGACAAAUCUGCCACACAGCUUGAGAGCAUCUUCGGAUGCAGAGGCGGUAGCCUUCGGUGGCGCGAUAACGCCAACGUUCUCAACUAUGACACGCAAAACGCGUGCUCCGUUGAAUGGAGUUUAUCAUG | -4.04
GGAUCUUCUCGAUCUAACAGAUAAGACAAAUCUGCCACAAAGCUUGAGAGCAUCUUCGGAUGCAGAGGCGGCAGCCUUCGGUGGCGCGAUAGCGCCAACGUUCUCAACUAUGACACGCAAAACGCGUGCUCCGUUGAAUGAAGUUUAUCAUG | -1.8
GGAUCUUCUCGAUCUAACAGAAAAGACAAAUCUGCCACAAAGCUUGAGAGCAUCUUCGGAUGCAGAGGCGGCAGCCUUCGGUGGCGCGAUGGCGCCAACGUUCUCAACUAUGACACGCAAAACGCGUGCUCCGUUGAAUGGAGUUAAUCAUG | -3.96
